Assay results as given in the supplement of paper PMC10567573.

B1: FAM189A2 (parent)
chain: GSEAAVIPLDLGCTQVTQDGDIPN

Variants of: B1
Test: protein stability index of a GFP-peptide fusion (GPS, HEK-293T) (PSI 1-6); higher = more stable
Conditions: c terminus: a fixed tail appended
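Also: lentivirally expressed fusions sorted by FACS into six bins by GFP to DsRed ratio, PSI derived from sequencing read proportions per bin multiplied by bin number.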

Row | Variant | protein stability index
1 | GSEAAVIPLDLGCTQVTQDADIPN [G20A] | 5.24
2 | GSEAAVIPLDLGCTQVTQDHDIPN [G20H] | 5.53
3 | GSEAAVIPLDLGCTQVTQDFDIPN [G20F] | 4.18
4 | GSEAAVIPLDLGCTQVTQDTDIPN [G20T] | 5.41
5 | GSEAAVIPLDLGCTQVTQDLDIPN [G20L] | 5.04
6 | GSEAAVIPLDLGCTQVTQDCDIPN [G20C] | 5.3
7 | GSEAAVIPLDLGCTQVTQDNDIPN [G20N] | 5.31
8 | GSEAAVIPLDLGCTQVTQDEDIPN [G20E] | 5.62
9 | GSEAAVIPLDLGCTMVTQDGDIPN [Q15M] | 5.27
10 | GSEAAVIPLDLGCTFVTQDGDIPN [Q15F] | 4.8
11 | GSEAAVIPLDLGCTGVTQDGDIPN [Q15G] | 5.46
12 | GSEAAVIPLDLGCTLVTQDGDIPN [Q15L] | 4.12
13 | GSEAAVIPLDLGCTTVTQDGDIPN [Q15T] | 5.24
14 | GSEAAVIPLDLGCTDVTQDGDIPN [Q15D] | 5.23
15 | GSEAAVIPLDLGCTCVTQDGDIPN [Q15C] | 5.31
16 | GSEAAVIPLDLGCTEVTQDGDIPN [Q15E] | 5.77
17 | GSEAAVIPLDLGCTNVTQDGDIPN [Q15N] | 5.75
18 | GSEAAVIPLDLGCTHVTQDGDIPN [Q15H] | 5.51
19 | GSEAAVIPLDLGCTAVTQDGDIPN [Q15A] | 5.45
20 | GSEAAVIPLDLGCTRVTQDGDIPN [Q15R] | 4.17
21 | GSEAAVIPLDLGCTKVTQDGDIPN [Q15K] | 5.16
22 | GSEAAVIPLDLGCTPVTQDGDIPN [Q15P] | 5.33
23 | GSEAAVIPLDLGCTWVTQDGDIPN [Q15W] | 4.11
24 | GSEAAVIPLDLGCTYVTQDGDIPN [Q15Y] | 4.5

Row | Variant | protein stability index
25 | GSEAAVIPLDLGCTIVTQDGDIPN [Q15I] | 4.72
26 | GSEAAVIPLDLGCTVVTQDGDIPN [Q15V] | 5.12
27 | GSEAAVIPLDLGCTSVTQDGDIPN [Q15S] | 5.4
28 | GSEAAVIPLDLGCTQVTTDGDIPN [Q18T] | 5.02
29 | GSEAAVIPLDLGCTQVTRDGDIPN [Q18R] | 5.09
30 | GSEAAVIPLDLGCTQVTPDGDIPN [Q18P] | 5.18
31 | GSEAAVIPLDLGCTQVTCDGDIPN [Q18C] | 5.27
32 | GSEAAVIPLDLGCTQVTSDGDIPN [Q18S] | 5.54
33 | GSEAAVIPLDLGCTQVTMDGDIPN [Q18M] | 4.83
34 | GSEAAVIPLDLGCTQVTGDGDIPN [Q18G] | 5.49
35 | GSEAAVIPLDLGCTQVTHDGDIPN [Q18H] | 5.22
36 | GSEAAVIPLDLGCTQVTKDGDIPN [Q18K] | 5.17
37 | GSEAAVIPLDLGCTQVTLDGDIPN [Q18L] | 5.25
38 | GSEAAVIPLDLGCTQVTNDGDIPN [Q18N] | 4.68
39 | GSEAAVIPLDLGCTQVTFDGDIPN [Q18F] | 4.26
40 | GSEAAVIPLDLGCTQVTDDGDIPN [Q18D] | 5.63
41 | GSEAAVIPLDLGCTQVTIDGDIPN [Q18I] | 4.62
42 | GSEAAVIPLDLGCTQVTVDGDIPN [Q18V] | 4.92
43 | GSEAAVIPLDLGCTQVTADGDIPN [Q18A] | 5.46
44 | GSEAAVIPLDLGCTQVTWDGDIPN [Q18W] | 4.67
45 | GSEAAVIPLDLGCTQVTYDGDIPN [Q18Y] | 4.61
46 | GSEAAVIPLDLGCTQVTEDGDIPN [Q18E] | 5.38
47 | GSEAAVIPLDLGCTQYTQDGDIPN [V16Y] | 5.05
48 | GSEAAVIPLDLGCTQSTQDGDIPN [V16S] | 4.88

Row | Variant | protein stability index
49 | GSEAAVIPLDLGCTQWTQDGDIPN [V16W] | 4.67
50 | GSEAAVIPLDLGCTQLTQDGDIPN [V16L] | 5.06
51 | GSEAAVIPLDLGCTQITQDGDIPN [V16I] | 5.26
52 | GSEAAVIPLDLGCTQPTQDGDIPN [V16P] | 5.52
53 | GSEAAVIPLDLGCTQETQDGDIPN [V16E] | 4.98
54 | GSEAAVIPLDLGCTQDTQDGDIPN [V16D] | 5.66
55 | GSEAAVIPLDLGCTQKTQDGDIPN [V16K] | 5.09
56 | GSEAAVIPLDLGCTQATQDGDIPN [V16A] | 4.95
57 | GSEAAVIPLDLGCTQGTQDGDIPN [V16G] | 5.14
58 | GSEAAVIPLDLGCTQQTQDGDIPN [V16Q] | 4.61
59 | GSEAAVIPLDLGCTQRTQDGDIPN [V16R] | 5
60 | GSEAAVIPLDLGCTQTTQDGDIPN [V16T] | 5.53
61 | GSEAAVIPLDLGCTQCTQDGDIPN [V16C] | 5.31
62 | GSEAAVIPLDLGCTQNTQDGDIPN [V16N] | 5.62
63 | GSEAAVIPLDLGCTQMTQDGDIPN [V16M] | 4.6
64 | GSEAAVIPLDLGCTQFTQDGDIPN [V16F] | 5.1
65 | GSEAAVIPLDLGCTQHTQDGDIPN [V16H] | 5.22
66 | GSEAAVIPLDLGCTQVTQEGDIPN [D19E] | 5.34
67 | GSEAAVIPLDLGCTQVTQMGDIPN [D19M] | 4.61
68 | GSEAAVIPLDLGCTQVTQNGDIPN [D19N] | 4.8
69 | GSEAAVIPLDLGCTQVTQPGDIPN [D19P] | 5.06
70 | GSEAAVIPLDLGCTQVTQWGDIPN [D19W] | 4.37
71 | GSEAAVIPLDLGCTQVTQQGDIPN [D19Q] | 5.12
72 | GSEAAVIPLDLGCTQVTQLGDIPN [D19L] | 4.78

Row | Variant | protein stability index
73 | GSEAAVIPLDLGCTQVTQYGDIPN [D19Y] | 4.47
74 | GSEAAVIPLDLGCTQVTQCGDIPN [D19C] | 4.4
75 | GSEAAVIPLDLGCTQVTQTGDIPN [D19T] | 5.25
76 | GSEAAVIPLDLGCTQVTQSGDIPN [D19S] | 4.62
77 | GSEAAVIPLDLGCTQVTQGGDIPN [D19G] | 5.24
78 | GSEAAVIPLDLGCTQVTQRGDIPN [D19R] | 4.57
79 | GSEAAVIPLDLGCTQVTQIGDIPN [D19I] | 4.3
80 | GSEAAVIPLDLGCTQVTQAGDIPN [D19A] | 5.36
81 | GSEAAVIPLDLGCTQVTQHGDIPN [D19H] | 4.91
82 | GSEAAVIPLDLGCTQVTQKGDIPN [D19K] | 5.19
83 | GSEAAVIPLDLGCTQVTQVGDIPN [D19V] | 4.77
84 | GSEAAVIPLDLGCTQVTQFGDIPN [D19F] | 4.46
85 | GSEAAVIPLDSGCTQVTQDGDIPN [L11S] | 5.54
86 | GSEAAVIPLDWGCTQVTQDGDIPN [L11W] | 5.38
87 | GSEAAVIPLDQGCTQVTQDGDIPN [L11Q] | 5.33
88 | GSEAAVIPLDNGCTQVTQDGDIPN [L11N] | 5.24
89 | GSEAAVIPLDMGCTQVTQDGDIPN [L11M] | 5.31
90 | GSEAAVIPLDYGCTQVTQDGDIPN [L11Y] | 5.7
91 | GSEAAVIPLDTGCTQVTQDGDIPN [L11T] | 5.44
92 | GSEAAVIPLDVGCTQVTQDGDIPN [L11V] | 5.65
93 | GSEAAVIPLDPGCTQVTQDGDIPN [L11P] | 5.45
94 | GSEAAVIPLDRGCTQVTQDGDIPN [L11R] | 5.72
